What was measured:
[1] = molecular target: MERS VHH-55 (His-tagged, mammalian expression) (llama); assay: SPR
[2] = molecular target: MERS-CoV RBD (crystallised, tag and glycans removed) (MERS-CoV England1, UniProt K9N5Q8)
[3] = molecular target: MERS-CoV RBD protein (MERS-CoV England1, UniProt K9N5Q8)
[4] = molecular target: MERS-CoV S1 protein (MERS-CoV England1, UniProt K9N5Q8)
[5] = molecular target: DPP4 protein (recombinant, soluble) (UniProt P27487 40-766); assay: BLI
Sequence of DPP4 protein (recombinant, soluble) (P27487 40-766): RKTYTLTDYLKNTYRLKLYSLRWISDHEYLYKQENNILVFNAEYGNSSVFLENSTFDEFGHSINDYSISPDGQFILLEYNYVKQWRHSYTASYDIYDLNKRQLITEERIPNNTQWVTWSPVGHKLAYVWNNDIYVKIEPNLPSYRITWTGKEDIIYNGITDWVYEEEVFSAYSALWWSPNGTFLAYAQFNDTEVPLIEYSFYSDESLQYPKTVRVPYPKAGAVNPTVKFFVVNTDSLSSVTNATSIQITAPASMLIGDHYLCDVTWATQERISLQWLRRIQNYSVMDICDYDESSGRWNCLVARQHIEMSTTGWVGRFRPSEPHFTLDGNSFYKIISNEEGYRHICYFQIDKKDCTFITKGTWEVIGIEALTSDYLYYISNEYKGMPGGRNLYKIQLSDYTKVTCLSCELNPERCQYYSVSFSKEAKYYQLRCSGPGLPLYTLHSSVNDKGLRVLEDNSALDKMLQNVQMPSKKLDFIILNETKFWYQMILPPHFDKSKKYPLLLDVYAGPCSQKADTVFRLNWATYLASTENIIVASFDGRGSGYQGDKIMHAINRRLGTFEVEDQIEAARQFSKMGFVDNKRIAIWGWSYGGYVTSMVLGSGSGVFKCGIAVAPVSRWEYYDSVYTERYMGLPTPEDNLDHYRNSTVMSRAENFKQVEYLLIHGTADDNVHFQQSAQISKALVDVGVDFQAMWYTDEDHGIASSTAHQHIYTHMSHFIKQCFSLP

Sequence of MERS-CoV S1 protein (K9N5Q8 18-751): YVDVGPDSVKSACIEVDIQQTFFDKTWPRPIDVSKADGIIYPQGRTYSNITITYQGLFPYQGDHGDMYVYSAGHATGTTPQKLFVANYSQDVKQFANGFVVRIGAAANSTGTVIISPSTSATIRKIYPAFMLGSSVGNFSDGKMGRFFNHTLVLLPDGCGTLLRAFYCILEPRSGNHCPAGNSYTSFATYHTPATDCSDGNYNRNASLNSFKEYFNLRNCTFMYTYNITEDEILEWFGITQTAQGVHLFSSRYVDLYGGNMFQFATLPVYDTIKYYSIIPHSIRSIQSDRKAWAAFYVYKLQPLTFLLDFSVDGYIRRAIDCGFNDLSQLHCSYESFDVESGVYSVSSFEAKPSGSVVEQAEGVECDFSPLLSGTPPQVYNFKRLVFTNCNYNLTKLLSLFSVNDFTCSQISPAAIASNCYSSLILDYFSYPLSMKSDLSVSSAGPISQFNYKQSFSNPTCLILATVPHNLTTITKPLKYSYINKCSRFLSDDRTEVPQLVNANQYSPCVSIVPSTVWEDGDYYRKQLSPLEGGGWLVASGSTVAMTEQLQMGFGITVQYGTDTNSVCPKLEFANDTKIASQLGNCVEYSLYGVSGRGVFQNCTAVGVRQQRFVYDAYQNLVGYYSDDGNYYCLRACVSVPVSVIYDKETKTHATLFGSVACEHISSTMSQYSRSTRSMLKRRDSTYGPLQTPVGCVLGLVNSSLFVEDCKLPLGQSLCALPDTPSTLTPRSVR

**Q.** With “MERS-CoV RBD protein (from UniProt K9N5Q8 367-589) (domain or fragment)” as the molecule, how does the Kd [1] read?
**A.** Its Kd is 79.2 pM.

B1: MERS VHH-55 (VHH)
VHH: QVQLQESGGGLVQAGGSLRLSCVASGSIFSINAMDWYRQAPGKQRELVAGITSGGSTNYGDFVKGRFTISRDNAKNTVYLQMDSLKPEDTAVYYCAAEVGGWGPPRPDYWGHGTQVTVSS
**Q.** Does B1 bind [2]?
**A.** Result: binds

**Q.** Does B1 bind [3]?
**A.** Result: binds

**Q.** Does B1 bind [4]?
**A.** Result: binds

B2: Fc-tagged MERS-CoV RBD (domain or fragment)
chain: EAKPSGSVVEQAEGVECDFSPLLSGTPPQVYNFKRLVFTNCNYNLTKLLSLFSVNDFTCSQISPAAIASNCYSSLILDYFSYPLSMKSDLSVSSAGPISQFNYKQSFSNPTCLILATVPHNLTTITKPLKYSYINKCSRFLSDDRTEVPQLVNANQYSPCVSIVPSTVWEDGDYYRKQLSPLEGGGWLVASGSTVAMTEQLQMGFGITVQYGTDTNSVCPKLE
**Q.** Does B2 bind [5]?
**A.** Result: binds
